How the values were obtained:
Peptide 29 = molecular target: T1, Peptide 29 (cyno); assay: peptide microarray; Sp C2; IgG 1 µg/ml
T1 peptide: PMLPQPQPPPPPPPP

Peptide 1 = molecular target: T2, Peptide 1 (human, cyno); assay: peptide microarray; Sp C2; IgG 1 µg/ml
T2 peptide: QQQQQQQQPPPPPPP

Peptide 25 = molecular target: T3, Peptide 25 (cyno); assay: peptide microarray; Sp C2; IgG 1 µg/ml
T3 peptide: QQPPPPPPPPPPPPQ

Peptide 24 = molecular target: T4, Peptide 24 (cyno); assay: peptide microarray; Sp C2; IgG 1 µg/ml
T4 peptide: QQQQQQQQQPPPPPP

Peptide 3 = molecular target: T5, Peptide 3 (human, cyno); assay: peptide microarray; Sp C2; IgG 1 µg/ml
T5 peptide: QQQQQQPPPPPPPPP

Peptide 30 = molecular target: T6, Peptide 30 (cyno); assay: peptide microarray; Sp C2; IgG 1 µg/ml
T6 peptide: MLPQPQPPPPPPPPP

Peptide 18 = molecular target: T7, Peptide 18 (cyno); assay: peptide microarray; Sp C2; IgG 1 µg/ml
T7 peptide: QQQPPPPPPPPPPPP

Epitope 1 [1] = molecular target: T8, Epitope 1 (human, cyno); assay: peptide microarray; Sp C2; IgG 1 µg/ml
T8 peptide: QQQQPPPPPPPPPPP

Peptide 2 = molecular target: T9, Peptide 2 (human, cyno); assay: peptide microarray; Sp C2; IgG 1 µg/ml
T9 peptide: QQQQQQQPPPPPPPP

Peptide 26 = molecular target: T10, Peptide 26 (cyno); assay: peptide microarray; Sp C2; IgG 1 µg/ml
T10 construct: the array is said to hold 15-mers
T10 peptide: QPPPPPPPPPPPPQL

Peptide 4 [2] = molecular target: T11, Peptide 4 (human, cyno); assay: peptide microarray; Sp C2; IgG 1 µg/ml
T11 peptide: QQQQQPPPPPPPPPP

Peptide 21 [3] = molecular target: T12, Peptide 21 (cyno); assay: peptide microarray; Sp C2; IgG 1 µg/ml
T12 peptide: AQPMLPQPQPPPPPP

Peptide 28 = molecular target: T13, Peptide 28 (cyno); assay: peptide microarray; Sp C2; IgG 1 µg/ml
T13 peptide: QPMLPQPQPPPPPPP

Peptide 31 = molecular target: T14, Peptide 31 (cyno); assay: peptide microarray; Sp C2; IgG 1 µg/ml
T14 peptide: LPQPQPPPPPPPPPP

Peptide 36 [4] = molecular target: T15, Peptide 36 (mouse); assay: peptide microarray; Sp M; IgG 1 µg/ml
T15 peptide: QPPPQAPPPPPPPPP

Peptide 40 [5] = molecular target: T16, Peptide 40 (mouse); assay: peptide microarray; Sp M; IgG 1 µg/ml
T16 peptide: QAPPPPPPPPPPQPP

Peptide 44 [6] = molecular target: T17, Peptide 44 (mouse); assay: peptide microarray; Sp M; IgG 1 µg/ml
T17 peptide: PPPQGQPPPPPPPLP

Peptide 43 [7] = molecular target: T18, Peptide 43 (mouse); assay: peptide microarray; Sp M; IgG 1 µg/ml
T18 peptide: QPPPQGQPPPPPPPL

Peptide 34 [8] = molecular target: T19, Peptide 34 (mouse); assay: peptide microarray; Sp M; IgG 1 µg/ml
T19 peptide: QQQPPPQAPPPPPPP

Peptide 42 [9] = molecular target: T20, Peptide 42 (mouse); assay: peptide microarray; Sp M; IgG 1 µg/ml
T20 peptide: PQPPPQGQPPPPPPP

Peptide 38 [10] = molecular target: T21, Peptide 38 (mouse); assay: peptide microarray; Sp M; IgG 1 µg/ml
T21 peptide: PPQAPPPPPPPPPPQ

Peptide 35 [11] = molecular target: T22, Peptide 35 (mouse); assay: peptide microarray; Sp M; IgG 1 µg/ml
T22 peptide: QQPPPQAPPPPPPPP

Peptide 39 [12] = molecular target: T23, Peptide 39 (mouse); assay: peptide microarray; Sp M; IgG 1 µg/ml
T23 peptide: PQAPPPPPPPPPPQP

Peptide 33 [13] = molecular target: T24, Peptide 33 (mouse); assay: peptide microarray; Sp M; IgG 1 µg/ml
T24 peptide: QQQQPPPQAPPPPPP

Peptide 32 [14] = molecular target: T25, Peptide 32 (mouse); assay: peptide microarray; Sp M; IgG 1 µg/ml
T25 peptide: QQQQQPPPQAPPPPP

Peptide 37 [15] = molecular target: T26, Peptide 37 (mouse); assay: peptide microarray; Sp M; IgG 1 µg/ml
T26 peptide: PPPQAPPPPPPPPPP

Peptide 36 [16] = molecular target: T15, Peptide 36; assay: peptide microarray; Sp M; IgG 10 µg/ml
Peptide 40 [17] = molecular target: T16, Peptide 40; assay: peptide microarray; Sp M; IgG 10 µg/ml
Peptide 44 [18] = molecular target: T17, Peptide 44; assay: peptide microarray; Sp M; IgG 10 µg/ml
Peptide 43 [19] = molecular target: T18, Peptide 43; assay: peptide microarray; Sp M; IgG 10 µg/ml
Peptide 34 [20] = molecular target: T19, Peptide 34; assay: peptide microarray; Sp M; IgG 10 µg/ml
Peptide 42 [21] = molecular target: T20, Peptide 42; assay: peptide microarray; Sp M; IgG 10 µg/ml
Peptide 38 [22] = molecular target: T21, Peptide 38; assay: peptide microarray; Sp M; IgG 10 µg/ml
Peptide 35 [23] = molecular target: T22, Peptide 35; assay: peptide microarray; Sp M; IgG 10 µg/ml
Peptide 39 [24] = molecular target: T23, Peptide 39; assay: peptide microarray; Sp M; IgG 10 µg/ml
Peptide 33 [25] = molecular target: T24, Peptide 33; assay: peptide microarray; Sp M; IgG 10 µg/ml
Peptide 32 [26] = molecular target: T25, Peptide 32; assay: peptide microarray; Sp M; IgG 10 µg/ml
Peptide 37 [27] = molecular target: T26, Peptide 37; assay: peptide microarray; Sp M; IgG 10 µg/ml
Epitope 1 [28] = molecular target: T8, Epitope 1; assay: peptide microarray; Sp C1; IgG 10 µg/ml
Peptide 4 [29] = molecular target: T11, Peptide 4; assay: peptide microarray; Sp C1; IgG 10 µg/ml
Peptide 21 [30] = molecular target: T12, Peptide 21; assay: peptide microarray; Sp C1; IgG 10 µg/ml

B1: ATL_0005335 (antibody, V domains shown)
VH: EVQLVESGGGLVKPGGSLRLSCAASGFTFNKAWMNWVRQAPGKGLEWVGRIKSGIDGGTTDYAAPVQGRFTISRDDSKNTVYLQMNSLNTEDTAVYYCIPPPYYYYYGLDVWGQGTTVTVSS
VL: QSALTQPASVSGSPGQSITISCTGTSSDIGSYNLVSWYQQHPGNAPKPLIYEGSKRPSGVSARFSGSKSGNTASLTISGLQPEDEADYYCSSYAGFNTLVFGGGTKVTVL
notes: human IgG1; also called ATL_5335
- corrected fluorescence intensity (Peptide 29): 523
- corrected fluorescence intensity (Peptide 1): 990
- corrected fluorescence intensity (Peptide 25): 507
- corrected fluorescence intensity (Peptide 24): 562
- corrected fluorescence intensity (Peptide 3): 1220
- corrected fluorescence intensity (Peptide 30): 772
- corrected fluorescence intensity (Peptide 18): 1270
- corrected fluorescence intensity (Epitope 1 [1]): 1400
- corrected fluorescence intensity (Peptide 2): 1160
- corrected fluorescence intensity (Peptide 26): 128
- corrected fluorescence intensity (Peptide 4 [2]): 1110
- corrected fluorescence intensity (Peptide 21 [3]): 168
- corrected fluorescence intensity (Peptide 28): 421
- corrected fluorescence intensity (Peptide 31): 1000
- corrected fluorescence intensity (Peptide 36 [4]): 778
- corrected fluorescence intensity (Peptide 40 [5]): 0
- corrected fluorescence intensity (Peptide 44 [6]): 143
- corrected fluorescence intensity (Peptide 43 [7]): 120
- corrected fluorescence intensity (Peptide 34 [8]): 754
- corrected fluorescence intensity (Peptide 42 [9]): 612
- corrected fluorescence intensity (Peptide 38 [10]): 194
- corrected fluorescence intensity (Peptide 35 [11]): 758
- corrected fluorescence intensity (Peptide 39 [12]): 0
- corrected fluorescence intensity (Peptide 33 [13]): 600
- corrected fluorescence intensity (Peptide 32 [14]): 0
- corrected fluorescence intensity (Peptide 37 [15]): 742
- corrected fluorescence intensity (Peptide 36 [16]): 8300
- corrected fluorescence intensity (Peptide 40 [17]): 0
- corrected fluorescence intensity (Peptide 44 [18]): 1250
- corrected fluorescence intensity (Peptide 43 [19]): 899
- corrected fluorescence intensity (Peptide 34 [20]): 5800
- corrected fluorescence intensity (Peptide 42 [21]): 2280
- corrected fluorescence intensity (Peptide 38 [22]): 3520
- corrected fluorescence intensity (Peptide 35 [23]): 7820
- corrected fluorescence intensity (Peptide 39 [24]): 1880
- corrected fluorescence intensity (Peptide 33 [25]): 3090
- corrected fluorescence intensity (Peptide 32 [26]): 286
- corrected fluorescence intensity (Peptide 37 [27]): 7370
- corrected fluorescence intensity (Epitope 1 [28]): 3340
- corrected fluorescence intensity (Peptide 4 [29]): 4320
- corrected fluorescence intensity (Peptide 21 [30]): 2740

B2: ATL_0005331 (antibody, V domains shown)
VH: B1 VH
VL: QSALTQPRSVSGSPGQSITISCTGTSSDVGSYNLVSWFQQHPGKAPKLIIYEVNKRPSGVPDRFSGSKSGNTASLTVSGLQAEDEADYYCGSYAGTNNVFGTGTKLTVL
notes: human IgG1; also called ATL_5331; Human IgG1 ATL_0005331
- corrected fluorescence intensity (Peptide 29): 156
- corrected fluorescence intensity (Peptide 1): 259
- corrected fluorescence intensity (Peptide 25): 206
- corrected fluorescence intensity (Peptide 24): 146
- corrected fluorescence intensity (Peptide 3): 548
- corrected fluorescence intensity (Peptide 30): 256
- corrected fluorescence intensity (Peptide 18): 474
- corrected fluorescence intensity (Epitope 1 [1]): 379
- corrected fluorescence intensity (Peptide 2): 462
- corrected fluorescence intensity (Peptide 26): 141
- corrected fluorescence intensity (Peptide 4 [2]): 546
- corrected fluorescence intensity (Peptide 21 [3]): 154
- corrected fluorescence intensity (Peptide 28): 152
- corrected fluorescence intensity (Peptide 31): 294
- corrected fluorescence intensity (Peptide 36 [4]): 190
- corrected fluorescence intensity (Peptide 40 [5]): 0
- corrected fluorescence intensity (Peptide 44 [6]): 0
- corrected fluorescence intensity (Peptide 43 [7]): 14.5
- corrected fluorescence intensity (Peptide 34 [8]): 162
- corrected fluorescence intensity (Peptide 42 [9]): 41.5
- corrected fluorescence intensity (Peptide 38 [10]): 0
- corrected fluorescence intensity (Peptide 35 [11]): 181
- corrected fluorescence intensity (Peptide 39 [12]): 0
- corrected fluorescence intensity (Peptide 33 [13]): 0
- corrected fluorescence intensity (Peptide 32 [14]): 0
- corrected fluorescence intensity (Peptide 37 [15]): 180
- corrected fluorescence intensity (Peptide 36 [16]): 2740
- corrected fluorescence intensity (Peptide 40 [17]): 234
- corrected fluorescence intensity (Peptide 44 [18]): 1740
- corrected fluorescence intensity (Peptide 43 [19]): 997
- corrected fluorescence intensity (Peptide 34 [20]): 1540
- corrected fluorescence intensity (Peptide 42 [21]): 884
- corrected fluorescence intensity (Peptide 38 [22]): 825
- corrected fluorescence intensity (Peptide 35 [23]): 2410
- corrected fluorescence intensity (Peptide 39 [24]): 842
- corrected fluorescence intensity (Peptide 33 [25]): 633
- corrected fluorescence intensity (Peptide 32 [26]): 0
- corrected fluorescence intensity (Peptide 37 [27]): 3160
- corrected fluorescence intensity (Epitope 1 [28]): 4160
- corrected fluorescence intensity (Peptide 4 [29]): 3150
- corrected fluorescence intensity (Peptide 21 [30]): 1030

— patent US20260209320A1 (ALCHEMAB THERAPEUTICS, published 2026)
